For data set [1], the system named is GST-MBNL1-His6 (truncated 41-kDa isoform). Put plainly: filter binding. Particulars: MBNL1 filter binding: 250 mM NaCl, 15 mM KCl, 50 mM Tris-HCl pH 8.0, 0.05% Tween-20, 1 mM MgCl2, 37 C, 15 min, SRSF1 EMSA: 100 mM NaCl, 20 mM HEPES-Na pH 8.0 ….
Another data set concerns the target SRSF1-His6 (23 kDa) (UniProt Q07955). Nature of the data set: EMSA. Particulars: MBNL1 filter binding: 250 mM NaCl, 15 mM KCl, 50 mM Tris-HCl pH 8.0, 0.05% Tween-20, 1 mM MgCl2, 37 C, 15 min, SRSF1 EMSA: 100 mM NaCl, 20 mM HEPES-Na pH 8.0 ….
UniProt Q07955, sequence (Q07955 1-186): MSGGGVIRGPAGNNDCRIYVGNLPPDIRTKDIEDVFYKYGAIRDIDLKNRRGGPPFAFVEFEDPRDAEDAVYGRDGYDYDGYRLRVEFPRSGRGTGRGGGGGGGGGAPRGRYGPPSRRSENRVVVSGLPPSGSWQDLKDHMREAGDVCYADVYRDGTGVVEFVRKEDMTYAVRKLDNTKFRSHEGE

Consider Atp2a1-RNA, for which the binding signal (fold suppression) in data set [1] (0.5 uM 2'OMe AON (S4)), in data set [1] (0.5 uM 2'OMe-PS AON (S5)) and in data set [1] (20 uM DNA AON (S120)) was 8 throughout.

In the data set with SRSF1-His6 (23 kDa), “GGGUUGGUACUAAGAAGUGCCUUUCCUGACGUCUCUGCUGCUUGGAACCGCUUCUAGAGCAGCCUCUGCUUUUGCCUUGCUUGCUGCCAGCUAGACUGACGACAGCACAUCCGCCCUCCACCUCUAGCCCAGACACCCCAUUUCUACUUCUAAUCAGGAGAAAAGCUCUGAGUAUCUGCCAUUGCCCUAGG [Mbnl1-RNA]” displayed a dissociation constant Kd of 13 nM.

Turning to Mbnl1-RNA, in the data set with SRSF1-His6 (23 kDa) (no AON), the Kd turned out to be 13 nM.

In turn, Nfix-RNA came in with a Kd with SRSF1-His6 (23 kDa) (no AON) of 60 nM.

The values are drawn from PMC5730568.
